Positions count from the first letter of the chain named.

Assay [1] deals with T1, glucagon receptor (target of the KD / T½ of Tables 1A, 1B and 2B) (Homo sapiens (Human), UniProt P47871 26-136).
T1 construct: not shown: Human Fc carrier (and any linker) of the ECD-Fc fusion
The experiment in a line: not stated; 25° C.

Assay [2] deals with T1, glucagon receptor (target of the KD / …). The experiment in a line: not stated; 37° C.
Assay [3] shares this target. Briefly: not stated (column of Table 1B).

T1 sequence (P47871 26-136 limits assumed): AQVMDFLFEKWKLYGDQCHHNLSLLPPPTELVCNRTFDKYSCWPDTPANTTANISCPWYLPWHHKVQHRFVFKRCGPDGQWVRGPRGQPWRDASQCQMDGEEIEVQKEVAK

B1: H3-C10 (antibody, V domains shown)
VH: QVQLVQSGAEVKKPGASVKVSCKASGYTFTDFSVHWVRQAPGQGLEWMGWINTETDETSYADDFKGRVTMTRDTSTSTVYMELSSLRSEDTAVYYCVKSLYWSYGPPDYWGQGTTVTVSS
VL: DIQMTQSPSSLSASVGDRVTITCRASQNIRTAVVWYQQKPGKAPKLLIYLATNRHSGVPSRFSGSGSGTDFTFTISSLQPEDIATYYCLQHWTYPFSFGGGTKLEIK
In assay [1], B1 displayed a T½ of 3.68 min.

B2: H2-E7-H3-3 (antibody, V domains shown)
VH: B1 VH with I51Y, T53L
VL: B1 VL
For the molecule B2, in assay [2], the T½ came out at 892 min.

B3: H2-A11-H3-2 (antibody, V domains shown)
VH: B1 VH with T55Y, E57F, Y101F
VL: B1 VL
In assay [2], B3 had a T½ of 512 min.

B4: H2-F10 (antibody, V domains shown)
VH: B1 VH with T53L, T55F, L100R, Y101G
VL: B1 VL
B4 gave a T½ in assay [1] of 21.6 min.

B5: H2-E7-H3-4 (antibody, V domains shown)
VH: B1 VH with I51Y, T53L, L100R, Y101W
VL: B1 VL
On to B5, for which, in assay [2], the T½ amounted to 442 min.

B6: H2-A8 (antibody, V domains shown)
VH: B1 VH with T55F, E57F, L100R, Y101G
VL: B1 VL
In turn, B6 showed a T½ in assay [1] of 20.8 min.

B7: H2-C8-H3-4 (antibody, V domains shown)
VH: B1 VH with D56R, E57G, L100R, Y101W
VL: B1 VL
In assay [2], B7 displayed a T½ of 318 min.

B8: H2-E7 (antibody, V domains shown)
VH: B1 VH with I51Y, T53L, L100R, Y101G
VL: B1 VL
As to B8, the T½ in assay [1] came to 13.7 min.

B9: FF2 (antibody, V domains shown)
VH: B1 VH with T55Y, E57F
VL: B1 VL with R24Q, T52S, S97T, L104V
B9: the dissociation constant (Kd) in assay [3] came out at 0.171 nM.

B10: H2-F11 (antibody, V domains shown)
VH: B1 VH with T55F, E57Y, L100R, Y101G
VL: B1 VL
In assay [1], B10 registered a T½ of 17.8 min.

B11: H2-C8 (antibody, V domains shown)
VH: B1 VH with D56R, E57G, L100R, Y101G
VL: B1 VL
For B11, the T½ in assay [1] came to 20.6 min.

B12: H2-E7-H3-2 (antibody, V domains shown)
VH: B1 VH with I51Y, T53L, Y101F
VL: B1 VL
In assay [2], B12 showed a T½ of 476 min.

B13: H2-A11 (antibody, V domains shown)
VH: B1 VH with T55Y, E57F, L100R, Y101G
VL: B1 VL
With B13, the T½ in assay [1] stood at 26.3 min.

B14: H3-H9 (antibody, V domains shown)
VH: B1 VH with L100R, Y101W
VL: B1 VL
With B14, the T½ in assay [1] is 2.26 min.

B15: H2-A11-H3-1 (antibody, V domains shown)
VH: B1 VH with T55Y, E57F, K98E
VL: B1 VL
Take B15: the T½ in assay [2] amounted to 251 min.

B16: H3-F5 (antibody, V domains shown)
VH: B1 VH with Y101F
VL: B1 VL
As for B16, in assay [1], the T½ is 2.4 min.

B17: H2-A11-H3-3 (antibody, V domains shown)
VH: B1 VH with T55Y, E57F
VL: B1 VL
In assay [2], B17 registered a T½ of 1030 min.
